These results are taken from the DeepSol protein solubility set.

This data set is described as follows: soluble on expression in E. coli; label from the status in PepcDB or PDB records.
“MSREQAILVGCQLAGVDDERFRYSMEELASLVATANGEVVAEVTQKREAPHPATYIGKGKTEELAAIVKQLEPDVVIFNSELSPSQARNLTKMLGEVKVIDRTQLILDIFARRARSKEGKLQVELAQLEYMLPRLSGQGEALSRLGGGIGTRGPGETKLETDRRHIRRRIDDIKAELVRIAEHRGRYRERRQKNQAFQVALVGYTNAGKSTIFNRLTAADSLEENLLFATLDPLTRKCVLPCGYTVLVTDTVGFIQDLPTTLVAAFRSTLEEVTEADLLLHVVDSSHPDYVAHERTVSRLLAELGASSIPMVTVYNKSDQKASEFIPTTTASIMISALSAADIDRLRYFLEEAVKQQMARYDVSIPSGEGKLLARLKSDTILHEWHYNEQGGTYDCQGYVLPTHPLYGELQSFQR”: the “soluble on expression in E. coli” value is reported as “soluble”.
The value for “MSCGYTGPINEQNKENIKRAIAMHAAARRTRMLQQLREGLQLYRLVDIMEKNKEVCRSHFVFEGGNDQVDSQYIVSHLDPKMSESGTLKHSKEMQILNNFQDFLMELEDGGPEDEEALCVSKVMQWLSGQAHVHLLLSERQAFKITVLFDHTCMERMPDHRICYPVDSAWTQTITFPTAHSTSLNQFKENMRIAVQQGAYFYRV” was “not soluble”; that for “MSKRLPPLNALRVFDAAARHLSFTRAAEELFVTQAAVSHQIKSLEDFLGLKLFRRRNRSLLLTEEGQSYFLDIKEIFSQLTEATRKLQARSAKGALTVSLPPSFAIQWLVPRLSSFNSAYPGIDVRIQAVDRQEDKLADDVDVAIFYGRGNWPGLRVEKLYAEYLLPVCSPLLLTGEKPLKTPEDLAKHTLLHDASRRDWQAYTRQLGLNHINVQQGPIFSHSAMVLQAAIHGQGIALANNVMAQSEIEAGRLVCPFNDVLVSKNAFYLVCHDSQAELGKIAAFRQWILAKAATEQEKFRFRYEQ” was “not soluble”; that for “MSLVLIQGAGIAGLALAREFTKAGIDWLLVERASEIRPIGTGITLASNALTALSSTLDLDRLFRRGMPLAGINVYAHDGSMLMSMPSSLGGNSRGGLALQRHELHAALLEGLDESRIRVGVSIVQILDGLDHERVTLSDGTVHDCSLVVGADGIRSSVRRYVWPEATLRHSGETCWRLVVPHRLEDAELAGEVWGHGKRLGFIQISPREMYVYATLKVRREEPEDEEGFVTPQRLAAHYADFDGIGASIARLIPSATTLVHNDLEELAGASWCRGRVVLIGDAAHAMTPNLGQGAAMALEDAFLLARLWCLAPRAETLILFQQQREARIEFIRKQSWIVGRLGQWESPWSVWLRNTLVRLVPNASRRRLHQRLFTGVGEMAAQEGHHHHHH” was “not soluble”.
Then “GMTQKEWPLWEVFVRSKQGLEHKHCGSLHATDAQQALHMARDVYTRRQEGVSIWVVPSTAITASAPEEKPELFDPMADKIYRHPTFYQLPDEVNHM”, with “soluble”; and “KPEPTNSSVEVSPDIYQQVRDELKRASVSQAVFARVAFNRTQGLLSEILRKEEDPRTASQSLLVNLRAMQNFLNLPEVERDRIYQDER”, with “soluble”; and “MGSDKIHHHHHHMIPLHTSMRGLRCFCVAAECLSFKETAKRLYLTPSAVSHQIKQLEESLNQSLFIRQTRAVTLTEVGARFYQAIEPVMQQLVNTVSEFNQSDRMLEVSISMPEFFASELFMPKLIGWSSKYPNINLKLETIKSRSDMIKHTDASIMLSGKQQTNADVYDLFPITYIPACNAQLHAELSSQGFKALTQVPLILHKARPYAWHQWAENVGFDAFQPKQIIQLDSMFSVARAAEQGLGIALIPLPISQAWFDNGTLLSLFPHPLFSHDRYYLIRHTNEQQRPEVQLLIDWILKSFHDESH”, with “not soluble”.
Turning to “KKPDTLWVNKRVVKCPEEVAQQLAVEAGSDVFLLKRIRYVDEEAVSIEESWVPAHLIHDVDAIGISLYDYFRSQHIYPQRTRSRVSARMPDAEFQSHIQLDSKIPVLVIKQVALDQQQRPIEYSISHCR”, the “soluble on expression in E. coli” value was “not soluble”.
The value for “SDRAMMNAFKEITTMADRINLPRNIVDRTNNLFKQVYEQKSLKGRANDAIASACLYIACRQEGVPRTFKEICAVSRISKKEIGRCFKLILKALETSVDLITTGDFMSRFCSNLCLPKQVQMAATHIARKAVELDLVPGRSPISVAAAAIYMASQASAEKRTQKEIGDIAGVADVTIRQSYRLIYPRAPDLFPTDFKFDTPVDKLPQL” was “soluble”.
